In one data set the test system is bovine retina. The settings on record: directly after exposure to 0.1 mg/mL; cited from earlier work.
For data set [1], the system named is retina. The settings on record: vitreal concentration 6.67-10 mg/mL, 24 hr or 7 days after treatment; cited from earlier work.
Data set [2] deals with retina. Also on record: species or system Long-Evans rats. To be noted: rat, in vivo. The method, then: (§1) All animal procedures were in accordance with protocols approved by the Institutional Animal Care and Use Committee at the Illinois Institute of Technology, and with the principles embodied in the statement on the use of animals in ophthalmic and vision research adopted by the Association for Research in Vision and Ophthalmology. Long-Evans male rats (1-3 months, 300-350 g) were purchased from Harlan Laboratories (Indianapolis, IN, USA). Animals were anesthetized using 80 mg/kg of ketamine hydrochloride (Fort Dodge Animal Health, Fort Dodge, Iowa, USA) and 10 mg/kg xylazine (AnaSed® Injection, Akorn, Inc., Decatur, IL, USA) via intraperitoneal (IP) injection. Proparacaine drops (Bausch and Lomb, Rochester, NY, USA) were used to anesthetize the corneas throughout the procedure and pupils were dilated using phenylephrine (Bausch and Lomb) and atropine drops (Bausch and Lomb). Heart rate and blood oxygen saturation were monitored with a PulseOximeter (8500AV; Nonin Medical Inc., Plymouth, MN, USA). Animals were placed on a custom-built heated stage and monitored to maintain a core body temperature of 37° C.
Animals were separated into six groups to determine the ability of the DDS of this invention to treat CNV. For analysis purposes, lesions were considered independent within each treatment group and each group contained two rats for a total of four eyes and up to 24 lesions per treatment group. […] All IVT injections were 5 μL and performed immediately after CNV induction.
The corneal electroretinogram (ERG) is a non-invasive measurement that represents the overall electrical activity of the retina in response to a stimulus flash. It is routinely used to assess retinal cellular activity and in toxicology studies. Each component of the ERG can be used to assess different retinal cell types and any alterations in the function of the retina due to the DDS would appear as changes in amplitude or sensitivity of various ERG components. Under scotopic conditions, the ERG has two important components: the a-wave and b-wave. The rising edge of the negative a-wave is generated by the photoreceptors in the outer retina; the positive b-wave is generated primarily by the bipolar cells and/or Müller cells. Another component of the ERG is the c-wave, which originates in the RPE and can be used to assess the functional integrity of the photoreceptors, the RPE cells, and the interactions between them; however, for the purposes of this research, the c-wave was not recorded or analyzed.
Under dim red light prior to and at each time point after CNV induction and DDS injection, ERG experiments were performed under scotopic conditions, with animals dark-adapted overnight prior to the experiment. Electroretinograms, in response to the full-field Ganzfeld stimulation, were recorded by a gold wire loop placed on the cornea. The reference and ground electrodes were 30 G platinum subdermal needle electrodes ([…]™ F-E2, Grass Products, Natus Neurology, Warwick, RI, USA) inserted into the cheek and nape of the neck, respectively. A-wave and b-wave intensity responses were recorded by presenting single flashes of increasing intensity (5×10^−4 to 305.7 sc cd·s·m^−2) and allowing the eye to dark adapt for 1 min after each flash. The intensity-response values for the a-wave and b-wave were fit with the Naka-Rushton equation, to determine a half-saturation intensity of the responses and maximal response.
The parameter values obtained from the Naka-Rushton analyses and IOP measurements were compared using the paired t-test verses control. […] Unless otherwise noted, significance represents p<0.05. All values are reported as sample mean±standard error of the mean.

The nature of data set [3]: Encapsulation efficiency of iodine-125 labelled anti-VEGF by gamma counter. Format: physicochemical. The method, then: (§2) Labeled proteins were lyophilized, weighed, and dissolved in 1× phosphate-buffered saline (PBS, pH 7.4) to create stock solutions of 10 mg/mL for each protein, which were stored at −80° C.
For each anti-VEGF agent, encapsulation efficiency (EE) was determined from the radioactivity measured using a gamma counter (Cobra-II Auto-Gamma, Packard Instrument Co., Meriden, CT) before and after microsphere preparation. EE was defined as the percent-drug within the microspheres relative to the theoretical loading amount.

Data set [4] is described as follows: In vitro single and dual release of DEX nanoparticles and AFL microspheres from hydrogel DDS (Example 3). Format: physicochemical. To be noted: first 14 days.
Procedure: The DDS for single release consisted of 20 mg of DEX nanoparticles (DEX-np) suspended within a biodegradable N-isopropylacrylamide/poly(ethylene glycol)-co-(L-lactic acid) diacrylate/(NIPAAm/PEG-PLLA-DA) thermoresponsive hydrogel. The dual release consisted of 20 mg of DEX-np and 20 mg of AFL microspheres (AFL-ms) suspended within the hydrogel. DEX release in vitro, with and without AFL-ms, was quantified using NanoDrop™ OneC. Iodine-125 radiolabeled AFL was used to measure encapsulation efficiency into the hydrogel and in vitro release. The initial burst was calculated by quantifying total drug release in the first 24 hours.
Data set [5] in a line: Microsphere diameter by light microscopy and ImageJ. Format: physicochemical. The settings on record: drug-loaded microspheres, Alone. An excerpt:
To measure microsphere diameter, microspheres were fabricated as described above with non-radiolabeled drug. A sample was suspended in ddH2O and imaged with a microscope (×20 objective, Carl Zeiss, Germany).

Data set [6] in a line: In vitro release of anti-VEGF from microspheres and microsphere-hydrogel DDS (PBS, 37 C). The format is physicochemical. The settings on record: for Initial Burst Percent: drug released within first 24 hours; for extension of release by hydrogel: microspheres in hydrogel versus alone; for reduction of initial burst by hydrogel: microspheres in hydrogel versus microspheres alone; for steady release rate: Days 7-196; for duration of release: microspheres suspended in hydrogel. The method, then:
as §2
Release of anti-VEGF agents was determined using a separation method also described in Osswald C. R. et al. Briefly, 15 mg of microspheres and 1 mL of the DDS (15 mg microspheres in 1 mL hydrogel) were suspended in 1.5 mL of 1×PBS to ensure detectable levels of anti-VEGF concentration throughout release. Release profiles were conducted at 37° C. under mild agitation and at predetermined intervals, 1 mL of supernatant was removed after a brief centrifugation and replaced with an equal volume of fresh buffer. Supernatants were read using a gamma counter (Packard). Cumulative release was calculated as a percent of encapsulated drug and was considered complete when the microspheres had completely degraded based on visual inspection. The IB was defined as drug released within the first 24 hours.

In the next data set the test system is laser-induced CNV. Kind of data set: Laser-induced CNV rat model, lesion area from late-phase FA images (multi-Otsu thresholding). Format: in vivo, Long-Evans rats. To be noted: 5 μL IVT immediately after CNV induction, Weeks 1-12. The method, then: as §1, with “Proparacaine drops (Bausch and Lomb, Rochester, NY, USA) were used to anesthetize the corneas throughout the procedure and pupils were dilated using phenylephrine (Bausch and Lomb) and atropine drops (Bausch and Lomb).” left out, “C. […]” for “C.”
A confocal scanning laser ophthalmoscope (cSLO) system (Heidelberg Retina Angiograph (HRA), Heidelberg Engineering, Heidelberg, Germany) was used to image the retina. FA still images were captured at 1-2 min, 10 min and 20 min after IP injection of 0.5 mL of 20% fluorescein dye (Sigma Aldrich, St. Louis, MO, USA) and were used for quantification of CNV lesion areas. […]
CNV lesion areas were quantified using late-phase FA images. […]

For data set [7] the following is noted: in vivo; cited from earlier work.
In another data set the test system is CNV. To be noted: intravitreal, out to 28 days, doses above and below clinical dose; cited from earlier work.
Data set [8] deals with corneal neovascularization. The settings on record: cited from earlier work.
Another data set relates to mouse VEGF-A. To be noted: cited from earlier work.
mouse VEGF-A, sequence (Q00731 205-317 limits assumed): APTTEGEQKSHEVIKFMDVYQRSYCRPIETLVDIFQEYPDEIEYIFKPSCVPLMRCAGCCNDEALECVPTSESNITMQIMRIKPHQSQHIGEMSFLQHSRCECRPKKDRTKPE
Data set [9] concerns inflammation-induced angiogenesis in the cornea. The settings on record: systemic or topical application; cited from earlier work.
Data set [10] is described as follows: Animal modeling of vancomycin hydrogel DDS (subconjunctival injection). Format: in vivo.
The nature of data set [11]: Bioactivity of vancomycin released from hydrogel. To be noted: throughout release from hydrogel.
Data set [12] is described as follows: Release of vancomycin from hydrogel. Format: physicochemical. The settings on record: VAN encapsulated in hydrogel only. The source says: A third example is a DDS where only hydrogel is used to release vancomycin (VAN, antibiotics, 1450 Da). VAN was encapsulated in the hydrogel as a short-term release DDS (e.g., for use as a prophylactic treatment before ocular surgery).

For data set [13] the following is noted: cited from earlier work.

Where “and” joins values, the source holds several entries; their conditions need not be identical. Identical values can stand only once.

Turning to aflibercept, the “decrease in maximal scotopic b-wave response” value in the data set on bovine retina is 43.1%. For the same molecule, in the data set with retina [1], the ERG parameters result was “did not alter any ERG parameters”. In the data set with retina [2], the “a-wave half-saturation intensity versus control” value is recorded as “No significant difference”; the “half-maximal a- or b-wave response (half-saturation intensity)” value was “No significant difference”; the “maximal a-wave response post-treatment, lower than control” value was about 40%; the “maximal a-wave response, Control versus Week 1-Week 12” value was “significant difference”. In addition, the “Encapsulation Efficiency Percent” value in data set [3] (microspheres Alone) came to 44.8 ± 2.0%. Further, the “Encapsulation Efficiency Percent” value in data set [3] (microspheres in hydrogel) stood at 44.6 ± 1.4%. Further, in data set [4], the “release rates in the presence of DEX-np” value was “increased release rates”. This molecule also gave a Diameter in data set [5] of 8.0 ± 0.3 μm. The “rate of release from the DDS, times less than that of ranibizumab” value in data set [6] (microsphere-hydrogel DDS) came out at 2.3 ×. The “Initial Burst Percent” value in [6] (microspheres Alone) amounted to 83.3 ± 2.1%. For the same molecule, in [6], the “extension of release by hydrogel” value stood at 27.2%; the “reduction of initial burst by hydrogel” value came to 76%; the duration of release was 196 days and ~200 days. For the same molecule, in data set [6] (microspheres in hydrogel), the steady release rate came out at 0.065 µg/day and the “Initial Burst Percent” value is on record as 20.1 ± 0.8%. Further, the “encapsulated drug remaining entrapped in hydrogel after complete degradation of microspheres” value in [6] (non-degradable hydrogel, end of release) amounted to 32.7±1.1%. Also, the “CNV lesion area compared to non-treated animals” value in the data set with laser-induced CNV was “significantly smaller CNV lesions compared to non-treated animals at Week 4 and Week 12”.
Turning to ranibizumab, the “half-life t½” value in [7] was 220 h. In the data set on CNV, the “therapeutic effect on CNV” value is “no therapeutic effect was observed”. In addition, in the data set with retina [2], the “a-wave parameters (maximal response, half-saturation intensity) versus control” value is “no significant differences” and the “b-wave parameters versus control” value is listed as “no significant differences”. In data set [3] (microspheres Alone), the “Encapsulation Efficiency Percent” value is 91.3 ± 2.5%. For the same molecule, in [5], the Diameter is reported as 7.5 ± 0.4 μm. The “Initial Burst Percent” value in data set [6] (microspheres Alone) came to 50.3 ± 2.1%. In data set [6], the “extension of release by hydrogel” value worked out at 27.2%; the “reduction of initial burst by hydrogel” value is on record as 58%; the duration of release was 196 days and ~200 days. Moreover, in data set [6] (microspheres in hydrogel), the steady release rate came out at 0.153 µg/day and the “Initial Burst Percent” value was determined as 21.0 ± 2.0%. In addition, the “CNV lesion area compared to non-treated animals” value in the data set on laser-induced CNV is “only had a significant decrease in lesion area at Week 12”.
Turning to bevacizumab, the corneal angiogenesis result in data set [8] (sub-conjunctival injection) was “can significantly inhibit corneal angiogenesis”. In data set [8] (topical), the corneal neovascularization entry is “limited corneal neovascularization”. In the data set with CNV, the “therapeutic effect on CNV” value was “no therapeutic effect was observed”. The “binding to mouse VEGF-A” value with mouse VEGF-A is “binds to mouse VEGF-A”. For the same molecule, the “inhibition of corneal angiogenesis” value in [9] is given as “significantly inhibited inflammation-induced angiogenesis”.
Consider `CN[C@H](CC(C)C)C(=O)N[C@H]1C(=O)N[C@@H](CC(N)=O)C(=O)N[C@H]2C(=O)N[C@H]3C(=O)N[C@H](C(=O)N[C@H](C(=O)O)c4cc(O)cc(O)c4-c4cc3ccc4O)[C@H](O)c3ccc(c(Cl)c3)Oc3cc2cc(c3O[C@@H]2O[C@H](CO)[C@@H](O)[C@H](O)[C@H]2O[C@H]2C[C@](C)(N)[C@H](O)[C@H](C)O2)Oc2ccc(cc2Cl)[C@H]1O` [VAN, vancomycin], for which the treatment efficacy entry in data set [10] is listed as “showed treatment efficacy”. Moreover, the bioactivity result in data set [11] is given as “bioactivity was maintained throughout the release”. Further, the “duration of controlled release” value in [12] is on record as “over 20 days”.

B1: ovalbumin (protein, UniProt P01012 2-386, looked up)
Ovalbumin: GSIGAASMEFCFDVFKELKVHHANENIFYCPIAIMSALAMVYLGAKDSTRTQINKVVRFDKLPGFGDSIEAQCGTSVNVHSSLRDILNQITKPNDVYSFSLASRLYAEERYPILPEYLQCVKELYRGGLEPINFQTAADQARELINSWVESQTNGIIRNVLQPSSVDSQTAMVLVNAIVFKGLWEKAFKDEDTQAMPFRVTEQESKPVQMMYQIGLFRVASMASEKMKILELPFASGTMSMLVLLPDEVSGLEQLESIINFEKLTEWTSSNVMEERKIKVYLPRMKMEEKYNLTSVLMAMGITDVFSSSANLSGISSAESLKISQAVHAAHAEINEAGREVVGSAEAGVDAASVSEEFRADHPFLFCIKHIATNAVLFFGRCVSP
notes: model protein (45 kDa) used in initial development of the DDS
On to B1, for which the “duration of controlled and extended release” value in [13] (microsphere-hydrogel DDS) is “approximately 200 days”. Further, in data set [13] (microspheres within hydrogel), the “extension of release compared to microspheres alone” value is given as about 30%. Besides, the “residual entrapment in hydrogel” value in data set [13] (prior study) is reported as 8.01±0.76%.

Source of the values: patent US12599570B2, “Biodegradable extended release microsphere-hydrogel ocular drug delivery system and method” (priority 2015, dated 2026).
